Results on 60 molecules are retold here after patent publication US7304127.

The target in the test is HIV-1LAI envelope gp120 labeled with radioactive iodine (HIV-1 LAI), P03377. Description: 125I-gp120, peptide array.

“And” between values parts separate entries of the source, which are not always exact repeats. Identical values can stand only once.

B1: CXCR4 297-314 (peptide)
peptide: LNPILYAFLGAKFKTSAQ
modifications: not checked
With B1, the counts minus background (counts per 20 min) came out at 274.

B2: CCR5 61-78 (peptide)
peptide: LKSMTDIYLLNLAISDLF
modifications: not checked
As for B2, the counts minus background (counts per 20 min) is 210.

B3: CXCR4 309-326 (peptide)
peptide: FKTSAQHALTSVSRGSSL
modifications: not checked
On to B3, for which the counts minus background (counts per 20 min) was found to be 173.

B4: CXCR4 333-350 (peptide)
peptide: KRGGHSSVSTESESSSFH
modifications: not checked
As to B4, the counts minus background (counts per 20 min) is 167.

B5: CXCR4 229-246 (peptide)
peptide: SKGHQKRKALKTTVILIL
modifications: not checked
In the case of B5, the counts minus background (counts per 20 min) was 140.

B6: STRL33 49-66 (peptide)
peptide: NSLVLVISIFYHKLQSLT
modifications: not checked
As to B6, the counts minus background (counts per 20 min) was 1260 and 1380.

B7: STRL33 45-62 (peptide)
peptide: GLVGNSLVLVISIFYHKL
modifications: not checked
Turning to B7, the counts minus background (counts per 20 min) is 164 and 95.5.

B8: STRL33 9-26 (peptide)
peptide: DYGFSSFNDSSQEEHQAF
modifications: not checked
B8: the counts minus background (counts per 20 min) is 8580 and 8910.

B9: STRL33 73-90 (peptide)
peptide: LPLADLVFVCTLPFWAYA
modifications: not checked
Regarding B9, the counts minus background (counts per 20 min) was 558 and 960.

B10: CCR5 53-70 (peptide)
peptide: LILINCKRLKSMTDIYLL
modifications: not checked
On to B10, for which the counts minus background (counts per 20 min) came to 2.

B11: CCR5 77-94 (peptide)
peptide: LFFLLTVPFWAHYAAAQW
modifications: not checked
B11: the counts minus background (counts per 20 min) was 173.

B12: CXCR4 269-286 (peptide)
peptide: IIKQGCEFENTVHKWISI
modifications: not checked
For B12, the counts minus background (counts per 20 min) came out at 106.

B13: CXCR4 225-242 (peptide)
peptide: KLSHSKGHQKRKALKTTV
modifications: not checked
Regarding B13, the counts minus background (counts per 20 min) is 130.

B14: CCR5 5-22 (peptide)
peptide: VSSPIYDINYYTSEPCQK
modifications: not checked
Turning to B14, the counts minus background (counts per 20 min) was 383.

B15: STRL33 65-82 (peptide)
peptide: LTDVFLVNLPLADLVFVC
modifications: not checked
Consider B15, for which the counts minus background (counts per 20 min) is 234 and 336.

B16: STRL33 57-74 (peptide)
peptide: IFYHKLQSLTDVFLVNLP
modifications: not checked
For B16, the counts minus background (counts per 20 min) was 1280 and 1260.

B17: CCR5 81-98 (peptide)
peptide: LTVPFWAHYAAAQWDFGN
modifications: not checked
With B17, the counts minus background (counts per 20 min) worked out at 306.

B18: STRL33 37-54 (peptide)
peptide: MYLVVFVCGLVGNSLVLV
modifications: not checked
With B18, the counts minus background (counts per 20 min) is 168 and 236.

B19: STRL33 85-102 (peptide)
peptide: PFWAYAGIHEWVFGQVMC
modifications: not checked
Regarding B19, the counts minus background (counts per 20 min) is 7260 and 7540.

B20: CXCR4 241-258 (peptide)
peptide: TVILILAFFACWLPYYIG
modifications: not checked
In the case of B20, the counts minus background (counts per 20 min) came to 323.

B21: CXCR4 249-266 (peptide)
peptide: FACWLPYYIGISIDSFIL
modifications: not checked
As for B21, the counts minus background (counts per 20 min) is 202.

B22: CXCR4 289-306 (peptide)
peptide: ALAFFHCCLNPILYAFLG
modifications: not checked
As to B22, the counts minus background (counts per 20 min) stood at 181.

B23: CXCR4 261-278 (peptide)
peptide: IDSFILLEIIKQGCEFEN
modifications: not checked
Regarding B23, the counts minus background (counts per 20 min) worked out at 3470.

B24: CCR5 65-82 (peptide)
peptide: TDIYLLNLAISDLFFLLT
modifications: not checked
On to B24, for which the counts minus background (counts per 20 min) is 38.

B25: CXCR4 245-262 (peptide)
peptide: ILAFFACWLPYYIGISID
modifications: not checked
Take B25: the counts minus background (counts per 20 min) is 184.

B26: CXCR4 317-334 (peptide)
peptide: LTSVSRGSSLKILSKGKR
modifications: not checked
On to B26, for which the counts minus background (counts per 20 min) came out at 183.

B27: STRL33 53-70 (peptide)
peptide: LVISIFYHKLQSLTDVFL
modifications: not checked
As for B27, the counts minus background (counts per 20 min) is 1620 and 1780.

B28: STRL33 69-86 (peptide)
peptide: FLVNLPLADLVFVCTLPF
modifications: not checked
With B28, the counts minus background (counts per 20 min) was 70.5 and 51.5.

B29: CXCR4 217-234 (peptide)
peptide: SCYCIIISKLSHSKGHQK
modifications: not checked
Turning to B29, the counts minus background (counts per 20 min) was 259.

B30: STRL33 25-42 (peptide)
peptide: AFLQFSKVFLPCMYLVVF
modifications: not checked
For B30, the counts minus background (counts per 20 min) was 1420 and 1360.

B31: CXCR4 273-290 (peptide)
peptide: GCEFENTVHKWISITEAL
modifications: not checked
In the case of B31, the counts minus background (counts per 20 min) worked out at 264.

B32: CXCR4 253-270 (peptide)
peptide: LPYYIGISIDSFILLEII
modifications: not checked
Regarding B32, the counts minus background (counts per 20 min) stood at 439.

B33: CXCR4 301-318 (peptide)
peptide: LYAFLGAKFKTSAQHALT
modifications: not checked
Turning to B33, the counts minus background (counts per 20 min) amounted to 156.

B34: CXCR4 233-250 (peptide)
peptide: QKRKALKTTVILILAFFA
modifications: not checked
Turning to B34, the counts minus background (counts per 20 min) worked out at 283.

B35: CXCR4 265-282 (peptide)
peptide: ILLEIIKQGCEFENTVHK
modifications: not checked
On to B35, for which the counts minus background (counts per 20 min) came out at 117.

B36: CCR5 69-86 (peptide)
peptide: LLNLAISDLFFLLTVPFW
modifications: not checked
As for B36, the counts minus background (counts per 20 min) is 144.

B37: CXCR4 257-274 (peptide)
peptide: IGISIDSFILLEIIKQGC
modifications: not checked
Consider B37, for which the counts minus background (counts per 20 min) was 734.

B38: STRL33 17-34 (peptide)
peptide: DSSQEEHQAFLQFSKVFL
modifications: not checked
Turning to B38, the counts minus background (counts per 20 min) was 870 and 2150.

B39: CCR5 73-90 (peptide)
peptide: AISDLFFLLTVPFWAHYA
modifications: not checked
Turning to B39, the counts minus background (counts per 20 min) was found to be 41.

B40: CXCR4 277-294 (peptide)
peptide: ENTVHKWISITEALAFFH
modifications: not checked
For B40, the counts minus background (counts per 20 min) came to 315.

B41: CXCR4 285-302 (peptide)
peptide: SITEALAFFHCCLNPILY
modifications: not checked
Turning to B41, the counts minus background (counts per 20 min) came to 188.

B42: CXCR4 329-346 (peptide)
peptide: LSKGKRGGHSSVSTESES
modifications: not checked
In the case of B42, the counts minus background (counts per 20 min) was 185.

B43: CCR5 57-74 (peptide)
peptide: NCKRLKSMTDIYLLNLAI
modifications: not checked
For the molecule B43, the counts minus background (counts per 20 min) is 25.

B44: STRL33 77-94 (peptide)
peptide: DLVFVCTLPFWAYAGIHE
modifications: not checked
Take B44: the counts minus background (counts per 20 min) was 1120 and 1060.

B45: STRL33 1-18 (peptide)
peptide: MAEHDYHEDYGFSSFNDS
modifications: not checked
With B45, the counts minus background (counts per 20 min) is 1180 and 1320.

B46: CXCR4 281-298 (peptide)
peptide: HKWISITEALAFFHCCLN
modifications: not checked
Turning to B46, the counts minus background (counts per 20 min) is 163.

B47: CXCR4 237-254 (peptide)
peptide: ALKTTVILILAFFACWLP
modifications: not checked
On to B47, for which the counts minus background (counts per 20 min) turned out to be 261.

B48: CXCR4 325-342 (peptide)
peptide: SLKILSKGKRGGHSSVST
modifications: not checked
Regarding B48, the counts minus background (counts per 20 min) was 285.

B49: CXCR4 213-230 (peptide)
peptide: IVILSCYCIIISKLSHSK
modifications: not checked
Regarding B49, the counts minus background (counts per 20 min) turned out to be 277.

B50: CXCR4 221-238 (peptide)
peptide: IIISKLSHSKGHQKRKAL
modifications: not checked
In the case of B50, the counts minus background (counts per 20 min) is 157.

B51: CXCR4 209-226 (peptide)
peptide: ILPGIVILSCYCIIISKL
modifications: not checked
Turning to B51, the counts minus background (counts per 20 min) was found to be 192.

B52: CXCR4 313-330 (peptide)
peptide: AQHALTSVSRGSSLKILS
modifications: not checked
For B52, the counts minus background (counts per 20 min) was found to be 147.

B53: STRL33 81-98 (peptide)
peptide: VCTLPFWAYAGIHEWVFG
modifications: not checked
For B53, the counts minus background (counts per 20 min) is 1820 and 1750.

B54: STRL33 5-22 (peptide)
peptide: DYHEDYGFSSFNDSSQEE
modifications: not checked
Consider B54, for which the counts minus background (counts per 20 min) was 3360 and 3690.

B55: CXCR4 293-310 (peptide)
peptide: FHCCLNPILYAFLGAKFK
modifications: not checked
Regarding B55, the counts minus background (counts per 20 min) is 123.

B56: CXCR4 321-338 (peptide)
peptide: SRGSSLKILSKGKRGGHS
modifications: not checked
B56: the counts minus background (counts per 20 min) was 169.

B57: CXCR4 337-352 (peptide)
peptide: HSSVSTESESSSFHSS
modifications: not checked
Take B57: the counts minus background (counts per 20 min) turned out to be 103.

B58: CXCR4 305-322 (peptide)
peptide: LGAKFKTSAQHALTSVSR
modifications: not checked
Consider B58, for which the counts minus background (counts per 20 min) turned out to be 200.

B59: STRL33 21-38 (peptide)
peptide: EEHQAFLQFSKVFLPCMY
modifications: not checked
In the case of B59, the counts minus background (counts per 20 min) is 2320 and 1820.

B60: STRL33 13-30 (peptide)
peptide: SSFNDSSQEEHQAFLQFS
modifications: not checked
For B60, the counts minus background (counts per 20 min) was 2690 and 2760.
